Source: publication PMC3800053

B1: Snx29_Left (dsDNA)
DNA 1: TCAGATACTGGGAACACTGTCAC
DNA 2: GTGACAGTGTTCCCAGTATCTGA
B2: Snx25_A (dsDNA)
DNA 1: TCAGAAAAAGGGAAAAGGGTCAC
DNA 2: GTGACCCTTTTCCCTTTTTCTGA
B3: Snx29_Right (dsDNA)
DNA 1: TCAGACACTGAGAATACTGTCAC
DNA 2: GTGACAGTATTCTCAGTGTCTGA

biological target: Ikaros zinc fingers 2-4 (F2-F4) (UniProt Q03267 144-223); assay: EMSA
Sequence (Q03267 144-223): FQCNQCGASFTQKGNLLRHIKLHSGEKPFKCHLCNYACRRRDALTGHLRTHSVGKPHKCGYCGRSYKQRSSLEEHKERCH

Row | Binder | binding result
1 | B1 | binds
2 | B2 | binds
3 | B3 | no binding

biological target: Ikaros zinc fingers 1-4 (F1-F4) (UniProt Q03267 117-223); assay: EMSA
Sequence (Q03267 117-223): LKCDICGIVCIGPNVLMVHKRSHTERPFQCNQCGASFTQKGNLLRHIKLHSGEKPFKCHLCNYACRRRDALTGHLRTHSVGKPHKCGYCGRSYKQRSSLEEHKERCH

Row | Binder | binding result
4 | B1 | binds
5 | B2 | binds
6 | B3 | no binding

biological target: Ikaros zinc fingers 1-3 (F1-F3) (UniProt Q03267 117-194); assay: EMSA
Sequence (Q03267 117-194): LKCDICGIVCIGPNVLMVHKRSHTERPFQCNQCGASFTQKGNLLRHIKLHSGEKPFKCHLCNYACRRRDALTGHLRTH

Row | Binder | binding result
7 | B1 | binds
8 | B2 | no binding
9 | B3 | no binding
